Source: patent US20190211317A1, “PEPTIDES AND NANOPARTICLES FOR INTRACELLULAR DELIVERY OF GENOME-EDITING MOLECULES” (Aadigen, LLC, priority 2016, published 2019)
Non-standard residues stand in square brackets, D forms with d. No end group written: not given here. βAla = NCCC(=O)O

Target: CY5 fluorescently labeled CAS9 protein (S. pyogenes), Q99ZW2
Experiment: fluorescence titration of 5 nM CY5-CAS9 with increasing peptide, quadratic fit
Conditions: remark: other sources report otherwise

CY5 fluorescently labeled CAS9 protein (S. pyogenes), Q99ZW2, sequence (Q99ZW2 whole entry): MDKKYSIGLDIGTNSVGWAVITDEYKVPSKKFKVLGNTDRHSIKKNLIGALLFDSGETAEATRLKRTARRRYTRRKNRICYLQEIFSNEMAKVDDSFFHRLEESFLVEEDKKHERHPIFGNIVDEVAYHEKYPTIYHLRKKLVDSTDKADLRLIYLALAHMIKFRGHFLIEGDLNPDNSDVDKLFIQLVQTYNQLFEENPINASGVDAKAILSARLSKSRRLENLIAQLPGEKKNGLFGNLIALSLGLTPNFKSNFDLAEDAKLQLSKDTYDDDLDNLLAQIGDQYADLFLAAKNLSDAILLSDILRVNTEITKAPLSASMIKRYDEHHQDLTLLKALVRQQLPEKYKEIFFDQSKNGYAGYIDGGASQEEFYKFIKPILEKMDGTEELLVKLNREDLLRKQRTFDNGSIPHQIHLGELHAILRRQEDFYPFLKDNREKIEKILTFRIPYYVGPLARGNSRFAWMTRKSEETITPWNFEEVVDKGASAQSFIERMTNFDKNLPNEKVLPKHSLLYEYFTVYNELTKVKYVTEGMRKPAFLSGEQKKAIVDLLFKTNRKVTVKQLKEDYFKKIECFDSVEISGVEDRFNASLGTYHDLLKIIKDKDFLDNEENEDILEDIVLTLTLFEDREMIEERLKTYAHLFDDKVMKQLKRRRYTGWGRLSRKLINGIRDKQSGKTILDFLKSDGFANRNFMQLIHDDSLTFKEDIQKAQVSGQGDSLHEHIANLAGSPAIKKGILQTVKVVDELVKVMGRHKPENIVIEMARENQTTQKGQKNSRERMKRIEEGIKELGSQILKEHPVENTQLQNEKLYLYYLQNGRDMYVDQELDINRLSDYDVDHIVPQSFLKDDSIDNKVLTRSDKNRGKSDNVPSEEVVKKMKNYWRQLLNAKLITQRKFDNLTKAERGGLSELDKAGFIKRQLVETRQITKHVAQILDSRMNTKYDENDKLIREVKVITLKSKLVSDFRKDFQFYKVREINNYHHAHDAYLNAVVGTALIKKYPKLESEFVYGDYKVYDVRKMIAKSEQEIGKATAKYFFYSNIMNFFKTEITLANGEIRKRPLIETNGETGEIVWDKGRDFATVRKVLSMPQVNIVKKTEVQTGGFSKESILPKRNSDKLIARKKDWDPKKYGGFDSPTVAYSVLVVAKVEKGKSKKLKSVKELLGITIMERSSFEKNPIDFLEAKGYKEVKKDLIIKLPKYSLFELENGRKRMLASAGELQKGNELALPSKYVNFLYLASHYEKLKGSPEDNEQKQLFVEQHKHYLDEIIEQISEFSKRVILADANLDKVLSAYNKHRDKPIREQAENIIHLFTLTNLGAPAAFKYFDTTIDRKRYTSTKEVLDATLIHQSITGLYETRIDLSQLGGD

B1: VEPEP-6 (peptide)
peptide: [βAla]LWRALWRLWRSLWRLLWKA
modifications: also: acetate salt
Kd: > 100 nM

B2: CADY (peptide)
peptide: GLWRALWRLLRSLWRLLWKV
modifications: also: acetate salt
Kd: > 100 nM
